Measured values: patent publication US20250304677A1 (VIB VZW, published 2025)
Where a chain is given by its changes, count along the chain named. Names may count otherwise.

B1: [D72E] (VHH)
VHH: EVQLVESGGGLVQPGGSLRLSCAASGSGFSGMIMGWYRQAPGKQRELVATVTSHGTTNYADSVKGRFTISRENAKNTVYLQMNSLRPEDTAVYYCNAHFPGIYWGKGTLVTVSS
notes: library clone tested as crude periplasmic extract; also called P01500001[D72E]
B2: [D72P] (VHH)
VHH: B1 VHH with E72P
notes: library clone tested as crude periplasmic extract; also called P01500001[D72P]
B3: [G28P] (VHH)
VHH: B1 VHH with G28P, E72D
notes: library clone tested as crude periplasmic extract; also called P01500001[G28P]
B4: [G28T] (VHH)
VHH: B1 VHH with G28T, E72D
notes: library clone tested as crude periplasmic extract; also called P01500001[G28T]
B5: [I33F] (VHH)
VHH: B1 VHH with I33F, E72D
notes: library clone tested as crude periplasmic extract; also called P01500001[I33F]
B6: [I33L] (VHH)
VHH: B1 VHH with I33L, E72D
notes: library clone tested as crude periplasmic extract; also called P01500001[I33L]
B7: [N73G] (VHH)
VHH: B1 VHH with E72D, N73G
notes: library clone tested as crude periplasmic extract; also called P01500001[N73G]
B8: [S30I] (VHH)
VHH: B1 VHH with S30I, E72D
notes: library clone tested as crude periplasmic extract; also called P01500001[S30I]
B9: [V51R] (VHH)
VHH: B1 VHH with V51R, E72D
notes: library clone tested as crude periplasmic extract; also called P01500001[V51R]
B10: 2HFO9 (I51V,G54H)-NT (VHH)
VHH: B1 VHH with E1Q, V5Q, P14A, E72D, Y79L, R86K, L109Q
notes: not shown: neurotensin tridecapeptide (NT) and any linker or tags of the fusion
B11: 2HFO9(G54H)-NT (VHH)
VHH: B1 VHH with E1Q, V5Q, P14A, V51I, E72D, Y79L, R86K, L109Q
notes: as for B10
B12: 2HFO9(I51V)-NT (VHH)
VHH: B1 VHH with E1Q, V5Q, P14A, H54G, E72D, Y79L, R86K, L109Q
notes: as for B10
B13: 2MFR67 (E72D, D72N, S74A)-NT (VHH, not shown: small tags and cut ends)
VHH: B1 VHH with E1Q, V5Q, P14A, E72D, Y79L, R86K, L109Q
notes: Second substitution printed D72N; also called 2MFR67 triple mutant
B14: P01500007: 2HF042(Q1E, Q5V, A14P, V40A, L79Y, K83R, K105Q, Q108L)-FLAG3-HIS6 (VHH)
VHH: B1 VHH with E72D, K106Q
notes: Entry includes the tags
B15: P01500089: P0150001 with S27T, M32I, N76D (VHH)
VHH: B1 VHH with S27T, M32I, E72D, N76D
B16: P01500090: P0150001 with A24V, S27L, M32P, N67E (VHH)
VHH: B1 VHH with A24V, S27L, M32P, E72D, N76E
B17: P01500079: P01500001[E1D]Flag3-His6-GS-NT (VHH)
VHH: B1 VHH with E1D, E72D
notes: Entry includes tags, linker and NT(8-13); also called humanised 2HFO42, P01500079
B18: P01500070: P01500001[E1D, I33F, N73P]Flag3-His6-GS-NT (VHH)
VHH: B1 VHH with E1D, I33F, E72D, N73P
notes: Entry includes tags, linker and NT(8-13); produced in HEK-F cells
B19: P01500071: P01500001[E1D, G26E, I33F]Flag3-His6-GS-NT (VHH)
VHH: B1 VHH with E1D, G26E, I33F, E72D
notes: Entry includes tags, linker and NT(8-13)
B20: P01500072: P01500001[E1D, G26E, G28P, D72E, N73G]Flag3-His6-GS-NT (VHH)
VHH: B1 VHH with E1D, G26E, G28P, N73G
notes: as for B19
B21: P01500073: P01500001[E1D, G28T, S30I]Flag3-His6-GS-NT (VHH)
VHH: B1 VHH with E1D, G28T, S30I, E72D
notes: as for B19
B22: P01500074: P01500001[E1D, G26E, I33L]Flag3-His6-GS-NT (VHH)
VHH: B1 VHH with E1D, G26E, I33L, E72D
notes: as for B19
B23: P01500075: P01500001[E1D, I33L, N73P]Flag3-His6-GS-NT (VHH)
VHH: B1 VHH with E1D, I33L, E72D, N73P
notes: as for B19
B24: P01500076: P01500001[E1D, G26E, G28T, S30I, I33L]Flag3-His6-GS-NT (VHH)
VHH: B1 VHH with E1D, G26E, G28T, S30I, I33L, E72D
notes: as for B19
B25: P01500077: P01500001[E1D, G28T, S30I, N73P]Flag3-His6-GS-NT (VHH)
VHH: B1 VHH with E1D, G28T, S30I, E72D, N73P
notes: as for B19

Key:
[1] = target: T1, mouse folate receptor alpha (mFRα), recombinant protein (mouse, UniProt P35846 25-232); assay: BLI off-rate screening, crude periplasmic extract, biotinylated mouse FRα on streptavidin biosensors
T1 construct: Bought recombinant proteins (e.g. biotinylated, Acro Biosystems FO1-M82E9); also called mFOLR1; Ms FOLR1
T1 sequence (P35846 25-232 limits assumed): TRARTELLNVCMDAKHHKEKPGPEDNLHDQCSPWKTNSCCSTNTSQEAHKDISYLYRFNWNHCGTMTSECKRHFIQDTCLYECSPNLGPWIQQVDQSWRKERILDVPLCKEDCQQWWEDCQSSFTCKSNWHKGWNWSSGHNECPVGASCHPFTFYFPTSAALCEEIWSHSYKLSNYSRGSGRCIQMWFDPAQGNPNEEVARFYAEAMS
Description: (§1) Non-redundant clones were tested as crude periplasmatic extracts for binding analysis to human FRα and mouse FRα proteins captured on streptavidin biosensors in BLI. Variants P0150001 and P0150005 grown in the same 96-well plates were included as controls.

[2] = target: T2, human folate receptor alpha (hFRα), recombinant protein (human, UniProt P15328 25-233); assay: BLI off-rate screening, crude periplasmic extract, biotinylated human FRα on streptavidin biosensors
T2 construct: Bought recombinant proteins (His-tagged, or biotinylated via Avi-tag, e.g. AcroBiosystems FO1-H82E2, F01-H52H1); also called hFOLR1; huFOLR1
T2 sequence (P15328 25-233 limits assumed): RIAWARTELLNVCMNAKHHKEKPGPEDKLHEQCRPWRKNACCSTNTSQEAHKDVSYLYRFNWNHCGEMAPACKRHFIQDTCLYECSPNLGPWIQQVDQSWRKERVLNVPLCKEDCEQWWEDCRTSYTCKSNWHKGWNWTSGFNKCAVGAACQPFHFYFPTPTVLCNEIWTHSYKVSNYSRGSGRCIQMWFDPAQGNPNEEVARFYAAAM
Description: as §1

[3] = target: T1, mouse folate receptor alpha (mFRα), …; assay: BLI, biotinylated FOLR1 on streptavidin biosensors
Description: (§2) The off-rates of the 2HFO9 ^{∘}FIG. 5A) and 2MFR67 ^{∘}FIG. 5B) mutants and the three wild-type ^{∘}WT) VHHs from family 3 were determined by biolayer interferometry ^{∘}BLI) on both mouse and human biotinylated folate receptor alpha ^{∘}FOLR1) that was immobilized on streptavidin biosensors. The off-rates were calculated using a 1:1 binding model. The fold change compared to the off-rates of the corresponding WT VHH is represented as the WT VHH off-rate divided by the off-rate of the mutant for the VHHs that show an improved off-rate compared to the WT. For the VHHs that show a worse off-rate compared to the WT, the fold change is represented as the negative value of the mutant VHH off-rate divided by the WT off-rate. The red bars represent the WT 2HFO9 and 2MFR67 in the upper and lower panel respectively.

[4] = target: T2, human folate receptor alpha (hFRα), …; assay: BLI, biotinylated FOLR1 on streptavidin biosensors
Description: as §2

[5] = target: T1, mouse folate receptor alpha (mFRα), …; assay: BLI, Avi-biotinylated FRα on streptavidin biosensors, VHH 100 nM
Description: (§3) The binding of humanized variants of 2HFO42 was assessed by kinetic binding analysis to mouse and human FRα protein, biotinylated via an Avi-tag, captured on streptavidin biosensors by biolayer interferometry ^{∘}BLI), essentially as described earlier. VHHs were analysed at 100 nM concentration, and off-rates were determined using fitting of 1:1 langmurian interaction. Dissociation constants were compared to 2HFO42^{∘}Q1E, Q5V, Q108L) ^{∘}P101500004) and 2MFR67 ^{∘}Q1E, Q5V, Q108L) ^{∘}P0150000), respectively.

[6] = target: T2, human folate receptor alpha (hFRα), …; assay: as above
Description: as §3

[7] = target: T1, mouse folate receptor alpha (mFRα), …; assay: BLI
In short: (§4)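 Off-rates were measured by biolayer interferometry on biotinylated human and mouse folate receptor alpha immobilised on streptavidin biosensors. koff was calculated with a 1:1 binding model. Fold change for each variant is relative to its wild-type VHH. It is wild-type koff divided by variant koff when the variant's off-rate is better, and the negative of variant koff divided by wild-type koff when it is worse.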

[8] = target: T2, human folate receptor alpha (hFRα), …; assay: BLI
In short: as §4

[9] = target: T1, mouse folate receptor alpha (mFRα), …; assay: BLI off-rate analysis
[10] = target: T2, human folate receptor alpha (hFRα), …; assay: BLI off-rate analysis

binding result [1] | binding result [2] | koff [9] | koff [10] | further results | Binder
binds | binds | – | – | – | B1
binds | binds | – | – | – | B2
binds | binds | – | – | – | B3
binds | binds | – | – | – | B4
binds | binds | – | – | – | B5
binds | binds | – | – | – | B6
binds | binds | – | – | – | B7
binds | binds | – | – | – | B8
binds | binds | – | – | – | B9
– | – | – | – | Fold to 2HF042 (koff) [3]: 0.9; Fold to WT (koff) [3]: 0.3; koff [3]: 0.00236 s⁻¹; Fold hu/ms (koff) [4]: 6; Fold to WT (koff) [4]: 0.7; koff [4]: 0.0145 s⁻¹ | B10
– | – | – | – | Fold to 2HF042 (koff) [3]: 1; Fold to WT (koff) [3]: 0.3; koff [3]: 0.00215 s⁻¹; Fold hu/ms (koff) [4]: 6; Fold to WT (koff) [4]: 0.6; koff [4]: 0.0133 s⁻¹ | B11
– | – | – | – | Fold to 2HF042 (koff) [3]: 0.2; Fold to WT (koff) [3]: 1.8; koff [3]: 0.012 s⁻¹; Fold hu/ms (koff) [4]: 2; Fold to WT (koff) [4]: 1; koff [4]: 0.0205 s⁻¹ | B12
– | – | – | – | Fold to 2HF042 (koff) [3]: 0.9; Fold to WT (koff) [3]: 2.6; koff [3]: 0.00258 s⁻¹; Fold hu/ms (koff) [4]: 7; Fold to WT (koff) [4]: 2.9; koff [4]: 0.0173 s⁻¹ | B13
– | – | – | – | koff [5]: 0.00292 s⁻¹; koff [6]: 0.0164 s⁻¹ | B14
– | – | – | – | koff [7]: 0.00614 s⁻¹; nm (Fold wt) [7]: 3.8; koff [8]: 0.0747 s⁻¹; nm (Fold wt) [8]: 5.7 | B15
– | – | – | – | koff [7]: 0.00346 s⁻¹; nm (Fold wt) [7]: 2.1; koff [8]: 0.0259 s⁻¹; nm (Fold wt) [8]: 2 | B16
– | – | 0.00224 s⁻¹ | 0.0101 s⁻¹ | – | B17
– | – | 0.000192 s⁻¹ | 0.00151 s⁻¹ | – | B18
– | – | 0.000326 s⁻¹ | 0.00266 s⁻¹ | – | B19
– | – | 2.1e-05 s⁻¹ | 0.000307 s⁻¹ | – | B20
– | – | 0.000497 s⁻¹ | 0.00346 s⁻¹ | – | B21
– | – | 0.000328 s⁻¹ | 0.00181 s⁻¹ | – | B22
– | – | 0.000125 s⁻¹ | 0.00125 s⁻¹ | – | B23
– | – | 0.000164 s⁻¹ | 0.00112 s⁻¹ | – | B24
– | – | 0.000335 s⁻¹ | 0.00217 s⁻¹ | – | B25
